Laboratory results reported in the nanobody polyreactivity screen of Harvey et al. (2022).

Assay: yeast display, Sf9 membrane polyspecificity reagent, FACS + sequencing; frameworks hold sequencing errors
Method in brief: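 Polyreactivity labels are assigned by the sorting gate from which each nanobody was recovered. The gates were low and high (top ~1%), set on anti-HA fluorescence for expression and streptavidin fluorescence for reagent binding. Before sorting, galactose-induced (36–48 hours) yeast display cells were stained for 1 hour at 4 °C with 10% biotinylated, detergent-solubilized Sf9 membrane reagent.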

Row | Sequence | polyreactivity (PSR sort gate)
1 | QVQLVETGGGLVQAGGSLRISCAASGIIYVDNVMGSYRQAPGKERELVAAIDYSGGSTYYADSVKGRFTISRDNAKNNVYFQMNSLKPEDTAVYYCHARTYYGYGMDYWGQGTQVTVSS | low polyreactivity
2 | QVQLVESGGGLVQAGGSLRLSCAASGSIFARNAMGSYRQAPGKERELVAAITVRGRTNYADSVKGRFTISRDNAKNTVYLQMNSLKPDDTAVYYCAASLWDDDSRLMYYWGQGTQVTVSS | high polyreactivity
3 | QVQLHESGRGLVQAGGSLRLSCAASGTISYAGQMGWYRQAPGKEREFVAAIGVGSNTNYADIVKGRYTIIRYNAKNSVYLQIISLKPEDTAVYYCAVGCYAPLGRPFWGQGTQVTVSS | low polyreactivity
4 | QVQLVESGGGLVQAGGSLRLSCAASGSIFTPYAMGWYRQAPGKERELVAAITQTGGITYYADSVKGRFTISRDNAKNTVYLQMNSLKPEDTAVYYCAADDYNPFSYSYGLEYWGQGTQVTVSS | low polyreactivity
5 | QVQLVESGGGLVQAGGSLRLSCAASGITFRKYAMGWYRQAPGTERELVAAISAGGGRTFYADSVKGRFTISRDNAKNTVYLQMNSLKPEDTAVYYCNADLGIGYDYWGQGTQVTVSS | high polyreactivity
6 | QVQLVESGGGLVQAGGSLRLSCAASGRIFPISAMGWYRQAPGKERVLVAAIDSGGSTTYADSVKGRFTISRDNEKNTVYLQMNSLKPEDSADYYCAAKGAYPYWYPVGYRYDYWGQGTQVTVSS | low polyreactivity
7 | QVQLQESGGGLLQECGSQRLSCAASGSISEGQDMGWYRRAPGKEREFVAGIAPGATTYYADSVKGRFTISRDNAKNTVYLQMNSLNPEDTAVYYCAARYVTESDHDYWGQVTQVTVSS | low polyreactivity
8 | QVQLVASGGGLVQAGGSLRLSSAASGFTFYGYAMGWYSQARGKERELVATIRRSTGSTYYADSVKGRFTISRDNAKNTVYLQINSLIPEDTAVYYCATRVWFPITSYDYWGQGTQVTVSS | low polyreactivity
9 | QVQLVESGGGLVQAGGILRLSCAASGSIFGLYAMVWYRQAPGKERELVAAISPRGGSTYYADSVKGRFTISRDNAKNTVYLQMNILKPEDTAVYYCNRDYIRYALGHDYWGQGPQVTVSS | high polyreactivity
10 | QVQLVESGGGLVQAGGSLRLSCAASGFIFYHYAMGWYRQAPGKERELVAAISWSGGSTYYADSVKGRFTISRDNAKNTVYLQMNSLKPEDTAVYYCAAANTNRFPYGYWGQGTQVTVSS | high polyreactivity
11 | QVQLQESGGDLEQAGGSLRLSCTAIGTISDVRFMGWYRQAPGKERELVATISYVTITYYADSVKGRFTISRDSEKHRVSAHDEPETGRYRGVLLRYYWGLGTQVTVSS | low polyreactivity
12 | QVQLVESGGGLVQAGGSLRLSCAASGIISIFNVMGWYRQAPGKEMEWVASITGRGGSTFYADSVKGRFTISRDNAKNTVDLLMNSMKPEATAVYFCATDNGYTYPVTGLYDYWGQGTQVTVSS | low polyreactivity
13 | QVQLVESGGGLVQAGGSLRLSCAASGSISYKYVMGWYRQAPGKEREFVASITRIGGSTYYADSVKGRFTISRDNAKNTVYLQMNSLKPEDTAVYYCARDYDYWSWPSAYDYWGQGTQVTVSS | low polyreactivity
14 | QVQLVESGGGLVQAGGSLRLSCAASGSIFYRYALGWYRQAPGKERELVAALSYSGGSTYYADSVKGRFTISRDNAKNTVYLQMNSLKPQETAVYYCANDSPPPISDYSRYYGYGYWGQGTQVTVSS | low polyreactivity
15 | QVLLQESGGGLVQAGGSLRLSCAASGSIFLFYTMGWYRQAPVKEREFVAGITLGTTTYNADSVKGRFTISRDNVKNTVYLQMNSLKPEDTAVYYCAVAVGHYTEFWYWGQGTQVTMSS | high polyreactivity
16 | QVQLVESGGGLVQAGGSLRLRCAASGRIFDANAMGWYRQAPGKERELVAAITSRGGTTFYADSVKGRFTISRDNEKNTDYLQMNSLKPEDTAVYYCAADRYYFYRRYDYWGQGTQVTVSS | high polyreactivity
17 | QVQLVESGGGLVQAGGSLRLSCAASGSIFYYYAMARYRPAPGKERELVASITSSGGTTSYADSVKGRFRISRDNAKNTVYLQMISLKPEDTAVYYCNAQVYRYRIGYDYWGQGTQVTVSS | low polyreactivity
18 | QVQLVESGGGLVQAGGSLRLSCAASGRILKVYAMGWYRQAPGKERELVAAISVNGGRTYYADSVKGRFTISRDNAKNTVYLQMNSLKPEDTAVYYCAKRLYKPGNVFYSVDQSDYWGQGTQVTVSS | low polyreactivity
19 | QFQLVESGRGLVQAGGSLRLSCAASGSIFYAYAMGWYRKAPGKEREFVAVISYSGGSTYYADSVQGRFTISRDKAKNTVYLQMNSLKPEDTAVYYCAARYRAWSGNYWGQGTQVTVSS | high polyreactivity
20 | QVQLVESGGGLVQAGGSLRLSWAASGFTFKYYDMGWYRLAPGQERELVAAIDTSGGNTYYADSVKGRFTISRDNAKNTGYVQMNSLKPEETAVDYCAATVPYYHDDYWGQGTQVTVSS | low polyreactivity
21 | QVQLVESGGGLVQAGGSLRLSCAASGGILDTYAMGWYRQAPGKERELVAAITSGGNTNYADSVKGRFTISRDNAKNTVYLQMNSLKPEDTAVYYCNVVTWYYVFRPWEYDYWGQGTQVTVSS | low polyreactivity
22 | QVQLVESGGGLVQAGGSLRLSCAASGFTFYEYAMGWYRQAPGKERELVAAINRRGGRTYYADSVKGRFTISRDNAKNTVYLQMNSLKPEDTAVYYCNTPVSDGGHYYSWGQGTQVTVSS | high polyreactivity
